Experimental data published in paper PMC2770657.
Where two headings read alike, the source gives them in different places.

B1: T55 (ssDNA)
DNA: TTTTTTTTTTTTTTTTTTTTTTTTTTTTTTTTTTTTTTTTTTTTTTTTTTTTTTT

How the values were obtained:
Assay in all cases: EMSA
[1] = molecular target: T1, hPifHD (human Pif1 helicase domain) (Homo sapiens, UniProt Q9H611 206-620)
T1 sequence: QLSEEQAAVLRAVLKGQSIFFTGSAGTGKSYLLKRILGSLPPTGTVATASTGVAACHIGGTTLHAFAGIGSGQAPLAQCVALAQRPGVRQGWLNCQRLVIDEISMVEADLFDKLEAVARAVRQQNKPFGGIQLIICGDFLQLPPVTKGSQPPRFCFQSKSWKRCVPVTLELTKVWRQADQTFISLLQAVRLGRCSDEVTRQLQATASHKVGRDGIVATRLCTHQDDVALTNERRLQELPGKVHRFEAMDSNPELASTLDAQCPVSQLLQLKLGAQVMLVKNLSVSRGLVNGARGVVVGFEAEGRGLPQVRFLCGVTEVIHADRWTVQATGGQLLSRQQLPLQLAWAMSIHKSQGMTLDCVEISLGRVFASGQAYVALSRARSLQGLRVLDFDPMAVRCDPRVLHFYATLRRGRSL

hPifHD E307Q = molecular target: T2, hPifHD E307Q (Homo sapiens, UniProt Q9H611 206-620, E307Q)
T2 sequence: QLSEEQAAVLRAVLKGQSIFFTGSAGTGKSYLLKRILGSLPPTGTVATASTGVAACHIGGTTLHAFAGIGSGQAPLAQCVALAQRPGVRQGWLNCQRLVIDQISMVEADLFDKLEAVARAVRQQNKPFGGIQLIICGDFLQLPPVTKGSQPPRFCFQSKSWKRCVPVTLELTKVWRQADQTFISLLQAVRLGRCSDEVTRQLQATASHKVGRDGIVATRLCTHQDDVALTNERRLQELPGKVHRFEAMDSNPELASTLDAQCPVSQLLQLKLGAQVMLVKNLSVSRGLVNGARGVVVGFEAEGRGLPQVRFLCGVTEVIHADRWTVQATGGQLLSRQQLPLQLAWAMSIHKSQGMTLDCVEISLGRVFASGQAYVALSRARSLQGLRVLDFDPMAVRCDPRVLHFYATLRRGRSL

[2] = molecular target: T1, hPifHD (human Pif1 helicase domain); remark: listed apart in the source

Binder	binding result [1]	also measured
TTTTTTTTTTTTTTTTTTTTTTTTTTTTTTTTTTT (ssDNA) [T35]	binds	
B1		binding result (hPifHD E307Q): binds
TTTTTTTTTTTTTTTTTTTTTTTTT (ssDNA) [T25]		binding result [2]: no binding
TTTTTTTTTTTTTTTTTTTTTTTTTTTTTTTTTTTTTTTTTTTTTTTTTT (ssDNA) [T50]	binds	
